The source of these data is publication PMC9712583, “Time-resolved β-lactam cleavage by L1 metallo-β-lactamase” (Nature Communications, 2022).

The series concerns the molecule itself. Put plainly: SEC; L1 in solution; conditions not given.

B1: L1 metallo-β-lactamase (MBL) from Stenotrophomonas maltophilia (enzyme)
chain: SAAEAPLPQLRAYTVDASWLQPMAPLQVADHTWQIGTEDLTALLVQTAEGAVLLDGGMPQMAGHLLDNMKLRGVAPQDLRLILLSHAHADHAGPVAELKRRTGAHVAANAETAVLLARGGSNDLHFGDGITYPPASADRIIMDGEVVTVGGIAFTAHFMPGHTPGSTAWTWTDTRDGKPVRIAYADSLSAPGYQLKGNPRYPRLIEDYKRSFATVRALPCDLLLTPHPGASNWNYAVGSKASAEALTCNAYADAAEKKFDAQLARETAGTR
notes: L1 metallo-β-lactamase, Stenotrophomonas maltophilia K279a, residues 20-290, amplified from genomic DNA and cloned into pMCSG53; Homotetramer; Active-site residue numbers in the text (H116, H118, D120 ...) appear to follow the standard MBL numbering, not the 20-290 numbering of the construct; also called L1 MBL; source: E. coli BL21 DE3 (Gold), purified (IMAC, TEV cleavage, second IMAC); not …
Take B1: the “stoichiometry N” value worked out at 4.

What is called stoichiometry N is a count of units in the complex or per binding partner.
